Experimental data from paper PMC8026774.

Experiments:
MOR-1O-PK (mouse) [1] = biological target: MOR-1O-PK (mouse)
MOR-1O-PK (mouse) [2] = assay: radioligand binding
[3] = biological target: MOR-1O (untagged) (mouse); assay: radioligand binding
MOR-1-PK (mouse) = MOR-1-PK (mouse) (UniProt P42866)

| Substance | [35S]GTPγS binding (G-protein activation), EC50 (MOR-1O-PK (mouse) [1]) [nM] | Ki (MOR-1O-PK (mouse) [2]) [nM] | Ki [3] [nM] | [35S]GTPγS binding (G-protein activation), EC50 (MOR-1A-PK (mouse)) [nM] | [35S]GTPγS binding (G-protein activation), EC50 (MOR-1E-PK (mouse)) [nM] | [35S]GTPγS binding (G-protein activation), EC50 (MOR-1C-PK (mouse)) [nM] | [35S]GTPγS binding (G-protein activation), EC50 (MOR-1B1-PK (mouse)) [nM] | [35S]GTPγS binding (G-protein activation), EC50 (MOR-TR-PK (mouse)) [nM] | [35S]GTPγS binding (G-protein activation), EC50 (MOR-1-PK (mouse)) [nM] |
| --- | --- | --- | --- | --- | --- | --- | --- | --- | --- |
| β-endorphin (from UniProt P01189) (peptide) | 192 | 38.2 | 13.3 |  |  |  |  |  |  |
| endomorphin-1 (peptide) | 282 |  |  | 86 | 42 | 116 | 113 | 107 | 44 |
| [Met^5]enkephalin-Arg^6,Phe^7 (peptide) | 82 |  |  | 13 |  | 69 | 33 | 73 | 16 |
| DAMGO (peptide) |  |  |  | 39 | 29 | 195 | 110 | 48 |  |
| endomorphin-2 (peptide) | 335 |  |  | 131 | 101 | 111 | 367 | 55 | 90 |
